# Results reported in patent publication US20210130436A1 (published 2021).
# Positions count from the first letter of the chain named. Numbers in names are those of the source.
# B1: wild-type CD80 IgV-Fc (inert), Example 15 (Fc fusion, not shown: a dimerising Fc or GST)
# chain: VIHVTKEVKEVATLSCGHNVSVEELAQTRIYWQKEKKMVLTMMSGDMNIWPEYKNRTIFDITNNLSIVILALRPSDEGTYECVVLKYEKDAFKREHLAEVTLSVKAD
# notes: Inert Fc fusion; also called CD80 WT IgV-Fc
# B2: CD80 WT IgV-Fc (Fc fusion, not shown: a dimerising Fc or GST)
# chain: B1 chain
# notes: also called WT CD80-IgV-Fc; wild-type CD80 IgV-Fc
# B3: CD80 variant E35D/M47L (SEQ ID NO: 208)-Fc (inert) (Fc fusion)
# chain: VIHVTKEVKEVATLSCGHNVSVEELAQTRIYWQKDKKMVLTMMSGDLNIWPEYKNRTIFDITNNLSIVILALRPSDEGTYECVVLKYEKDAFKREHLAEVTLSVKADGSGGGGSEPKSSDKTHTCPPCPAPEAEGAPSVFLFPPKPKDTLMISRTPEVTCVVVDVSHEDPEVKFNWYVDGVEVHNAKTKPREEQYNSTYRVVSVLTVLHQDWLNGKEYKCKVSNKALPAPIEKTISKAKGQPREPQVYTLPPSREEMTKNQVSLTCLVKGFYPSDIAVEWESNGQPENNYKTTPPVLDSDGSFFLYSKLTVDKSRWQQGNVFSCSVMHEALHNHYTQKSLSLSPG
# notes: also called E35D/M47L CD80-IgV-Fc; E35D/M47L CD80-Fc
# B4: variant CD80 IgV-Fc S44P/A71D (Fc fusion)
# chain: B1 chain with S44P, A71D
# notes: not shown: which was us
# B5: CD80 WT IgV-Fc (Fc fusion, not shown: small tags and cut ends; a dimerising Fc or GST)
# chain: B1 chain
# notes: also called wild-type CD80 IgV-Fc
# Assays:
# human CTLA-4 [1] = target: T1, human CTLA-4 (human, UniProt P16410 36-223); test: flow cytometry on CHO cells stably expressing CTLA4; vs CD80 WT IgV-Fc
# T1 construct: also called huCTLA4
# T1 sequence (P16410 36-223): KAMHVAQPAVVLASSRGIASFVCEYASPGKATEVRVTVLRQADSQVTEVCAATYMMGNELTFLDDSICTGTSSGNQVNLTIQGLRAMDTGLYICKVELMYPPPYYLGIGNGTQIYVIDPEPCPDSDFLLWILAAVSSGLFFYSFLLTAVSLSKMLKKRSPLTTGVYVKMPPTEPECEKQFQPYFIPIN
# human PD-L1 [2] = target: T2, human PD-L1 (human, UniProt Q9NZQ7 19-290); test: flow cytometry; PD-L1 MFI over CD28 MFI
# T2 construct: also called huPD-L1; CD274
# T2 sequence (Q9NZQ7 19-290): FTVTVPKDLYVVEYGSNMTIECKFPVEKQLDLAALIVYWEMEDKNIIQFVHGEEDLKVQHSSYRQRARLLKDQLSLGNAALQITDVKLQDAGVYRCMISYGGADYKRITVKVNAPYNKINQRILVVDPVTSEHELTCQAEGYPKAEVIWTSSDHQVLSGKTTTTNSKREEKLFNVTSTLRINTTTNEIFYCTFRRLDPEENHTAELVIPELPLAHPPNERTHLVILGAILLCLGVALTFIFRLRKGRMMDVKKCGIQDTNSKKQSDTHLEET
# human PD-L1 [3] = target: T2, human PD-L1; test: cell-based or functional assay
# human CD28 [4] = target: T3, human CD28 (human, UniProt P10747 19-220); test: flow cytometry on Jurkat cells (CD28); vs CD80 WT IgV-Fc
# T3 construct: Endogenous CD28 on Jurkat/IL2 reporter cells
# human PD-L1 [5] = target: T2, human PD-L1; test: flow cytometry on CHO cells stably expressing PD-L1; vs CD80 WT IgV-Fc
# human PD-L1 [6] = target: T4, human PD-L1 (human, UniProt Q9NZQ7 19-290); test: flow cytometry, CHO cells stably expressing huPD-L1, 33.3 nM, PE anti-human Fc
# T4 construct: whole, on cells; also called huPD-L1
# T4 sequence (Q9NZQ7 19-290): as above
# human CTLA-4 [7] = target: T5, human CTLA-4 (human, UniProt P16410 36-223); test: flow cytometry, CHO cells stably expressing huCTLA4, 33.3 nM, PE anti-human Fc
# T5 construct: whole, on cells; also called huCTLA4
# T5 sequence (P16410 36-223): as the sequence (P16410 36-223) above
# human PD-L1 [8] = target: T4, human PD-L1; test: cell-based or functional assay; remark: listed apart in the source
# human CD28 [9] = target: T6, human CD28 (human, UniProt P10747 19-220); test: flow cytometry, Jurkat/IL2 reporter cells (endogenous CD28), 33.3 nM, PE anti-human Fc
# T6 construct: whole, on cells; Endogenous CD28 of Jurkat/IL2 reporter cells
# human PD-L1 [10] = target: T4, human PD-L1; test: flow cytometry; MFI on CHO/PD-L1 over MFI on Jurkat (CD28), 33.3 nM
# [11] = target: T7, human PD-L1, expressed on cells (human, UniProt Q9NZQ7 19-290); test: flow cytometry of live CD45- cells of digested hPD-L1 MC38 tumors after treatment in vivo, detection of the bound Fc protein (FIG. 15)
# T7 construct: On CHO/PD-L1, K562/OKT3/PD-L1 and CHO/OKT3/PD-L1 aAPC, huPD-L1-transduced MC38 cells, or primary human monocytes; also called huPD-L1; hPD-L1
# [12] = target: T8, human PD-L1, full-length, expressed on transfected HEK293 (Expi293F) cells (human, UniProt Q9NZQ7 19-290); test: flow cytometry, Fc fusion on HEK293 cells transfected with full-length human PD-L1
# T8 construct: whole, on cells; also called CD274; B7-H1
# [13] = target: T9, human PD-L1, expressed on CHO cells (human, UniProt Q9NZQ7 19-290); test: flow cytometry; MFI on PD-L1 cells over MFI on CD28 (Jurkat) cells, 33.3 nM
# T9 construct: whole, on cells; also called huPD-L1; CD274
# [14] = target: T9, human PD-L1, expressed on CHO cells; test: flow cytometry, CHO/PD-L1 cells, 33.3 nM; MFI relative to CD80 WT IgV-Fc
# [15] = target: T10, human CD28, endogenously expressed on Jurkat/IL2 reporter cells (human, UniProt P10747 19-220); test: flow cytometry, Jurkat (CD28) cells, 33.3 nM; MFI relative to CD80 WT IgV-Fc
# T10 construct: whole, on cells
# [16] = target: T11, human CTLA-4 (CTLA4), expressed on CHO cells (human, UniProt P16410 36-223); test: flow cytometry, CHO/CTLA-4 cells, 33.3 nM; MFI relative to CD80 WT IgV-Fc
# T11 construct: whole, on cells; also called huCTLA4
# T11 sequence (P16410 36-223): as above
# T9 sequence (Q9NZQ7 19-290): as the sequence (Q9NZQ7 19-290) above
# T8 sequence (Q9NZQ7 19-290): as above
# T7 sequence (Q9NZQ7 19-290): as above
binder,measurement,setting,value
B1,Fold change to WT CD80,human CTLA-4 [1],1 fold
same,Ratio of PDL1:CD28,human PD-L1 [2],1.6 ratio
same,"Fold Increase over WT CD80-IgV-Fc, Jurkat/IL2 + CHO/OKT3/PD-L1 Reporter Assay",human PD-L1 [3],1 fold
same,Fold change to WT CD80,human CD28 [4],1 fold
same,Fold change to WT CD80,human PD-L1 [5],1 fold
B2,Fold change to WT,human PD-L1 [6],1 fold
same,MFI at 33.3 nM,human PD-L1 [6],83 MFI
same,Fold change to WT CD80,human CTLA-4 [7],1 fold
same,MFI at 33.3 nM,human CTLA-4 [7],1030 MFI
same,"Fold Increase over WT CD80-IgV-Fc (Jurkat/IL2 + CHO/OKT3/PD-L1 reporter, 5.0 nM)",human PD-L1 [8],1 fold
same,Fold change to WT,human CD28 [9],1 fold
same,MFI at 33.3 nM,human CD28 [9],41 MFI
same,Ratio of PDL1:CD28,human PD-L1 [10],2 ratio
B3,binding result,[11],binds
B4,MFI at 22.2 nM,[12],6310 MFI
B5,Ratio of PDL1:CD28,[13],1 ratio
same,Fold change to WT CD80,[14],1 fold
same,Fold change to WT CD80,[15],1 fold
same,Fold change to WT CD80,[16],1 fold
